These results are taken from US20030092632A1, “Sulfated CCR5 peptides for HIV-1 infection” (priority 2001, published 2003).

Test [1] concerns CCR5+ cells. The settings on record: pre-treatment of target cells; Farzan et al. 1999; cited from earlier work.
Test [2] addresses CCR5. Briefly: flow cytometry on L1.2-CCR5+ cells, no peptide (defined as 100%), PE-streptavidin.
The target of test [3] is envelope glycoproteins from HIV-1 strain JR-FL on NLluc+env- pseudotyped particles (HIV-1 JR-FL). In words: cell-based or functional assay.
Test [4] has as its system HIV-1. The conditions noted are these: by associating with CD4 or gp120; literature; cited from earlier work.

As to `[Na+].[O-][Cl+2]([O-])[O-]` [sodium chlorate], the “Binding of a gp120/CD4 complex to CCR5+ cells” value in test [1] is “decreased”.

“biotinylated gp120JR-FL/CD4-IgG2 complex” came in with a m.f.i. in test [2] of 40 m.f.i.

In test [3], CCR5 Nt peptide S-10/14 displayed an inhibition of viral entry, luciferase-based single round of entry assay, HeLa-CD4+CCR5+ and U87MG-CD4+CCR5+ cells, peptide 100 µM of 50%.

With dextran sulfate, the “Inhibition of HIV-1 entry” value in test [4] is reported as “can inhibit HIV-1 entry”. In turn, CCR5 Nt peptide S-3/10/14 displayed an inhibition of viral entry, luciferase-based single round of entry assay, HeLa-CD4+CCR5+ and U87MG-CD4+CCR5+ cells, peptide 100 µM in test [3] of 50%.
